In paper PMC11472067:

Target: histone H2B tagged to mCherry (H2B-mCh) (UniProt P06899)
Assay: FRET or BRET; phasor FLIM-FRET in live HeLa nuclei; donor eGFP-HP1α or eGFP-HP1α_(I165E) (stable, endogenous HP1α knocked down), acceptor H2B-mCh transiently transfected; fraction of pixels exhibiting FRET read as chromatin binding

fraction of pixels exhibiting FRET (chromatin binding) [%] | Substance
11 | eGFP tagged to HP1α dimer mutant I165E (eGFP-HP1α_(I165E)) (from UniProt P45973 1-191) (natural protein)
20 | eGFP tagged to wild type HP1α (eGFP-HP1α) (from UniProt P45973 1-191) (natural protein)
